Source: patent US20240270821A1, “GIP/GLP1/GCG TRI-RECEPTOR AGONISTS AND USES THEREOF” (priority 2023, published 2024)
Changes are numbered by the printed parent chain.

T1: human GIP receptor (human) (UniProt P48546)
T1 sequence (looked up): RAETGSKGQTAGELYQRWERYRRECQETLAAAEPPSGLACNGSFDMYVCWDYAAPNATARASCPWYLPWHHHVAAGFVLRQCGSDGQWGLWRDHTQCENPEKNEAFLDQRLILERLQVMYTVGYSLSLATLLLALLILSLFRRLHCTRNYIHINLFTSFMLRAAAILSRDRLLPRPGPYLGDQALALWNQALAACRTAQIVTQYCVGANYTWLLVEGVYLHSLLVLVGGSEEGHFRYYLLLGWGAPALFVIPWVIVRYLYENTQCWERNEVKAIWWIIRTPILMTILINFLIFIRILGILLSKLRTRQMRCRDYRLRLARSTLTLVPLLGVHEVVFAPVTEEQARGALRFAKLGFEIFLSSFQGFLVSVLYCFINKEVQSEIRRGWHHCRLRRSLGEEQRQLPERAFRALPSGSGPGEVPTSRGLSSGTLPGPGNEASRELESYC

B1: Example 424 (peptide)
chain: YXQGTXTSDYSIXLDKKAQXAFIEYLEEGGPSSGAPPPSE
modifications: synthetic construct; SITE 2: note = 2-Aminoisobutyric Acid; SITE 6: note = alpha-methyl-2-fluoro-L-phenylalanine; SITE 13: note = alpha-methyl-leucine; SITE 17: note = Lysine is chemically modified through conjugation of the epsilon-amino group of the Lysine side chain with (2-[2-(2-Amino-ethoxy)-et)
B2: Example 433 (peptide)
chain: B1 chain with X13L
modifications: synthetic construct; SITE 2: note = 2-Aminoisobutyric Acid; SITE 6: note = alpha-methyl-2-fluoro-L-phenylalanine; SITE 17: note = Lysine is chemically modified through conjugation of the epsilon-amino group of the Lysine side chain with (gamma-Glu)2-CO-(CH2)16-CO2H; SITE 20: note = 2-Aminoisobutyric
B3: Example 429 (peptide)
chain: YXQGTXTSDXXIXLDXKAQXXFIEXLIEGGPSSGAPEPSEG
modifications: synthetic construct; SITE 2: note = 2-Aminoisobutyric Acid; SITE 6: note = alpha-methyl-2-fluoro-L-phenylalanine; SITE 10: note = 3-(4-Pyridyl)-L-alanine; SITE 11: note = alpha-methyl-L-serine; SITE 13: note = alpha-methyl-leucine; SITE 16: note = L-ornithine; SITE 17: note = Lysine is chemically mo
B4: Example 417 (peptide)
chain: YXQGTXTSDYSIXLDKKAQXAFIEYLLETGPSSGAPPPSEG
modifications: synthetic construct; SITE 2: note = 2-Aminoisobutyric Acid; SITE 6: note = alpha-methyl-2-fluoro-L-phenylalanine; SITE 13: note = alpha-methyl-leucine; SITE 17: note = Lysine is chemically modified through conjugation of the epsilon-amino group of the Lysine side chain with (2-[2-(2-Amino-ethoxy)-et)
B5: Example 435 (peptide)
chain: B4 chain with X13L, L27E, T29G, E40G, G41E
modifications: synthetic construct; SITE 2: note = 2-Aminoisobutyric Acid; SITE 6: note = alpha-methyl-2-fluoro-L-phenylalanine; SITE 17: note = Lysine is chemically modified through conjugation of the epsilon-amino group of the Lysine side chain with (gamma-Glu)2-CO-(CH2)16-CO2H; SITE 20: note = 2-Aminoisobutyric
B6: Example 431 (peptide)
chain: B4 chain with L27E, T29G
modifications: synthetic construct; SITE 2: note = 2-Aminoisobutyric Acid; SITE 6: note = alpha-methyl-2-fluoro-L-phenylalanine; SITE 13: note = alpha-methyl-leucine; SITE 17: note = Lysine is chemically modified through conjugation of the epsilon-amino group of the Lysine side chain with (2-[2-(2-Amino-ethoxy)-et)
B7: Example 434 (peptide)
chain: B4 chain with X13L, L27E, T29G
modifications: synthetic construct; SITE 2: note = 2-Aminoisobutyric Acid; SITE 6: note = alpha-methyl-2-fluoro-L-phenylalanine; SITE 17: note = Lysine is chemically modified through conjugation of the epsilon-amino group of the Lysine side chain with (gamma-Glu)2-CO-(CH2)16-CO2H; SITE 20: note = 2-Aminoisobutyric
B8: Example 39 (peptide)
chain: YXQGTFTSDFSKXLDKKAQXAFIQWLLEGGPSSGAPPPSEG
modifications: Lys acylated; non-natural residues; C-amide; synthetic construct; SITE 2: note = 2-Aminoisobutyric Acid; SITE 13: note = alpha-methyl-leucine; SITE 17: note = Lysine is chemically modified through conjugation of the epsilon-amino group of the Lysine side chain with (2-[2-(2-Amino-ethoxy)-ethoxy]-acetyl)-(gamma-Glu)-CO-(CH2) 18-CO2H; SITE 20: n
B9: Example 414 (peptide)
chain: YXQGTXTSDYSILLDXKAQXAFIEYLEEGGPSSGAPPPS
modifications: synthetic construct; SITE 2: note = 2-Aminoisobutyric Acid; SITE 6: note = alpha-methyl-2-fluoro-L-phenylalanine; SITE 16: note = L-ornithine; SITE 17: note = Lysine is chemically modified through conjugation of the epsilon-amino group of the Lysine side chain with (gamma-Glu)2-CO-(CH2)16-CO2H; SITE
B10: Example 415 (peptide)
chain: B9 chain with X16K, A21X
modifications: synthetic construct; SITE 2: note = 2-Aminoisobutyric Acid; SITE 6: note = alpha-methyl-2-fluoro-L-phenylalanine; SITE 17: note = Lysine is chemically modified through conjugation of the epsilon-amino group of the Lysine side chain with (gamma-Glu)2-CO-(CH2)16-CO2H; SITE 20: note = 2-Aminoisobutyric
B11: Example 423 (peptide)
chain: B9 chain with L13X, X16K, P37E
modifications: synthetic construct; SITE 2: note = 2-Aminoisobutyric Acid; SITE 6: note = alpha-methyl-2-fluoro-L-phenylalanine; SITE 13: note = alpha-methyl-leucine; SITE 17: note = Lysine is chemically modified through conjugation of the epsilon-amino group of the Lysine side chain with (2-[2-(2-Amino-ethoxy)-et)
B12: Example 418 (peptide)
chain: B9 chain with Y10X, X16K, E27L
modifications: synthetic construct; SITE 2: note = 2-Aminoisobutyric Acid; SITE 6: note = alpha-methyl-L-phenylalanine; SITE 10: note = 3-(4-Pyridyl)-L-alanine; SITE 17: note = Lysine is chemically modified through conjugation of the epsilon-amino group of the Lysine side chain with (2-[2-(2-Amino-ethoxy)-ethoxy]-
B13: Example 428 (peptide)
chain: B9 chain with E27L
modifications: synthetic construct; SITE 2: note = 2-Aminoisobutyric Acid; SITE 6: note = alpha-methyl-2-fluoro-L-phenylalanine; SITE 16: note = L-ornithine; SITE 17: note = Lysine is chemically modified through conjugation of the epsilon-amino group of the Lysine side chain with (gamma-Glu)2-CO-(CH2)16-CO2H; SITE
B14: Example 416 (peptide)
chain: B9 chain with X16K, A21N
modifications: synthetic construct; SITE 2: note = 2-Aminoisobutyric Acid; SITE 6: note = alpha-methyl-2-fluoro-L-phenylalanine; SITE 17: note = Lysine is chemically modified through conjugation of the epsilon-amino group of the Lysine side chain with (gamma-Glu)2-CO-(CH2)16-CO2H; SITE 20: note = 2-Aminoisobutyric
B15: Example 426 (peptide)
chain: B9 chain with Y1H, X16K
modifications: synthetic construct; SITE 2: note = 2-Aminoisobutyric Acid; SITE 6: note = alpha-methyl-2-fluoro-L-phenylalanine; SITE 17: note = Lysine is chemically modified through conjugation of the epsilon-amino group of the Lysine side chain with (gamma-Glu)2-CO-(CH2)16-CO2H; SITE 20: note = 2-Aminoisobutyric
B16: Example 427 (peptide)
chain: B9 chain with E27L
modifications: synthetic construct; SITE 2: note = 2-Aminoisobutyric Acid; SITE 6: note = alpha-methyl-2-fluoro-L-phenylalanine; SITE 16: note = L-ornithine; SITE 17: note = Lysine is chemically modified through conjugation of the epsilon-amino group of the Lysine side chain with (2-[2-(2-Amino-ethoxy)-ethoxy]-ace)
B17: Example 430 (peptide)
chain: B9 chain with X16K, K17I, E24K
modifications: not fully specified; synthetic construct; SITE 2: note = 2-Aminoisobutyric Acid; SITE 6: note = alpha-methyl-2-fluoro-L-phenylalanine; SITE 20: note = 2-Aminoisobutyric Acid; SITE 24: note = Lysine is chemically modified through conjugation of the epsilon-amino group of the Lysine side chain with (2-[2-(2-Amino-ethoxy)-
B18: Example 425 (peptide)
chain: B9 chain with Y1H, X16K
modifications: not fully specified; synthetic construct; SITE 2: note = 2-Aminoisobutyric Acid; SITE 6: note = alpha-methyl-2-fluoro-L-phenylalanine; SITE 17: note = Lysine is chemically modified through conjugation of the epsilon-amino group of the Lysine side chain with (2-[2-(2-Amino-ethoxy)-ethoxy]-acetyl)-(gamma-Glu)-CO-(CH2) 16-
B19: Example 421 (peptide)
chain: B9 chain with L13X, X16K
modifications: synthetic construct; SITE 2: note = 2-Aminoisobutyric Acid; SITE 6: note = alpha-methyl-2-fluoro-L-phenylalanine; SITE 13: note = alpha-methyl-leucine; SITE 17: note = Lysine is chemically modified through conjugation of the epsilon-amino group of the Lysine side chain with (2-[2-(2-Amino-ethoxy)-et)
B20: Example 419 (peptide)
chain: B9 chain with X16K, E27L
modifications: synthetic construct; SITE 2: note = 2-Aminoisobutyric Acid; SITE 6: note = alpha-methyl-L-phenylalanine; SITE 17: note = Lysine is chemically modified through conjugation of the epsilon-amino group of the Lysine side chain with (2-[2-(2-Amino-ethoxy)-ethoxy]-acetyl)2-(gamma-Glu)-CO-(CH2 )16-CO2H; SI
B21: Example 420 (peptide)
chain: YXQGTXTSDYXIXLDXKAQXAFIEYLLEGGPSSGEPPPE
modifications: synthetic construct; SITE 2: note = 2-Aminoisobutyric Acid; SITE 6: note = alpha-methyl-L-phenylalanine; SITE 11: note = alpha-methyl-L-serine; SITE 13: note = alpha-methyl-leucine; SITE 16: note = L-ornithine; SITE 17: note = Lysine is chemically modified through conjugation of the epsilon-amino gr

Experiments:
Test in all cases: cell-based or functional assay
[1] = target: human glucagon receptor (human) (UniProt P47871)
[2] = target: T1, human GIP receptor (human)
[3] = target: hGLP-1R (Homo sapiens, UniProt P43220)
Sequence of hGLP-1R (P43220 24-463): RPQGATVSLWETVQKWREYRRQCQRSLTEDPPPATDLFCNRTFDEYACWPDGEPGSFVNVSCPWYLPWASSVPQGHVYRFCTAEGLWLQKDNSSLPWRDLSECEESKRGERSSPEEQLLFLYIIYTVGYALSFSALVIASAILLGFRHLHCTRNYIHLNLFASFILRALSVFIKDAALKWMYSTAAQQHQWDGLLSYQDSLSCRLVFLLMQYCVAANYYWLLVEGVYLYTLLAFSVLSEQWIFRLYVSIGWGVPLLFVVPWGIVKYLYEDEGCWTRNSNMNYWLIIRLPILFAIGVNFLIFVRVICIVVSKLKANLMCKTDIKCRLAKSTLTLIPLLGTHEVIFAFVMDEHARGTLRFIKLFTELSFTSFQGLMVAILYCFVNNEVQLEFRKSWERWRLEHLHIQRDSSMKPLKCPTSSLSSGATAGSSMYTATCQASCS

Sequence of human glucagon receptor (human) (P47871 26-477): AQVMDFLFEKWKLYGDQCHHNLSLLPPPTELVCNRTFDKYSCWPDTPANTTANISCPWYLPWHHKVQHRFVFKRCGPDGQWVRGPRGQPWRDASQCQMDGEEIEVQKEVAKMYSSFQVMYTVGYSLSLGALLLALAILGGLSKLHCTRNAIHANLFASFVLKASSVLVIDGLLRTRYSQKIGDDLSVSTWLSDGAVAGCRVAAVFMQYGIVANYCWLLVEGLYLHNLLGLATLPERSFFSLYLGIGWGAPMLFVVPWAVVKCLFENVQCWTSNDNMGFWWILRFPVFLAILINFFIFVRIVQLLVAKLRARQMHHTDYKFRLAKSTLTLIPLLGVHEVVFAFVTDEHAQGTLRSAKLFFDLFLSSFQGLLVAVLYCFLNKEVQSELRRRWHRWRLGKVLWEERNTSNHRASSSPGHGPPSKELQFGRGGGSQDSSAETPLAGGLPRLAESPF

Binder | Relative cAMP EC50 [1] | cAMP Rel EC50, nM (1% HSA) [1] | Relative cAMP EC50 [2] | cAMP Rel EC50, nM (1% HSA) [2] | Relative cAMP EC50 [3] | cAMP Rel EC50, nM (1% HSA) [3] | cAMP Rel EC50 (in the presence of 1% HSA) [1] | cAMP Rel EC50 (in the presence of 1% HSA) [2] | cAMP Rel EC50 (in the presence of 1% HSA) [3]
B1 | 3.12 nM | 443 nM | 0.0154 nM | 3.21 nM | 0.318 nM | 29.5 nM |  |  | 
B2 | 5.78 nM | 532 nM | 0.0206 nM | 15.3 nM | 0.273 nM | 43.4 nM |  |  | 
B3 | 1.19 nM | 138 nM | 0.0142 nM | 1.89 nM | 0.178 nM | 12.1 nM |  |  | 
B4 | 2.83 nM | 386 nM | 0.0144 nM | 4.46 nM | 0.328 nM | 67 nM |  |  | 
B5 | 3.01 nM | 334 nM | 0.0239 nM | 10.3 nM | 0.311 nM | 33.6 nM |  |  | 
B6 | 3.32 nM | 352 nM | 0.0157 nM | 3.73 nM | 0.392 nM | 35.2 nM |  |  | 
B7 | 2.84 nM | 525 nM | 0.0226 nM | 10.6 nM | 0.236 nM | 35 nM |  |  | 
B8 | 10.1 nM |  | 0.299 nM |  | 2.13 nM |  | 1090 nM | 30.5 nM | 260 nM
B9 | 4.56 nM | 487 nM | 0.0303 nM | 14.9 nM | 0.176 nM | 32.8 nM |  |  | 
B10 | 8.64 nM | 1090 nM | 0.0496 nM | 28.9 nM | 0.38 nM | 52.6 nM |  |  | 
B11 | 1.92 nM | 319 nM | 0.0114 nM | 3.07 nM | 0.194 nM | 28.7 nM |  |  | 
B12 | 4.7 nM | 627 nM | 0.0153 nM | 6.02 nM | 0.264 nM | 36.6 nM |  |  | 
B13 | 2.35 nM | 536 nM | 0.01 nM | 4.55 nM | 0.207 nM | 38.2 nM |  |  | 
B14 | 2.08 nM | 348 nM | 0.0393 nM | 27.6 nM | 0.331 nM | 40.8 nM |  |  | 
B15 | 4.33 nM | 740 nM | 0.079 nM | 29.8 nM | 0.139 nM | 16.6 nM |  |  | 
B16 | 3.81 nM | 1440 nM | 0.0121 nM | 4.25 nM | 0.282 nM | 42.9 nM |  |  | 
B17 | 2.11 nM | 559 nM | 0.0144 nM | 4.65 nM | 0.438 nM | 78.9 nM |  |  | 
B18 | 5.49 nM | 1150 nM | 0.0997 nM | 46.9 nM | 0.15 nM | 20.3 nM |  |  | 
B19 | 3.25 nM | 468 nM | 0.0132 nM | 2.98 nM | 0.21 nM | 31.9 nM |  |  | 
B20 | 8.52 nM | 1650 nM | 0.0235 nM | 9.47 nM | 0.615 nM | 65.5 nM |  |  | 
B21 | 2.49 nM | 433 nM | 0.0131 nM | 2.61 nM | 0.205 nM | 31.3 nM |  |  | 
